Experimental data taken from patent US11319341B2, “Immune-stimulating soluble doxorubicin-conjugated complex” (Yafei (Shanghai) Biopharmaceutical Co., Ltd., priority 2016, dated 2022).
Residues, ends and D or L forms follow the SMILES beside them. *: point of attachment. Doxorubicin(3'-N) = COc1cccc2c1C(=O)c1c(O)c3c(c(O)c1C2=O)C[C@@](O)(C(=O)CO)C[C@@H]3O[C@H]1C[C@H](N*)[C@H](O)[C@H](C)O1; Mal(CH2CH2O)6CH2CH2CO = O=C1C=CC(=O)N1CCOCCOCCOCCOCCOCCOCCC(=O)*; Hexanoyl(6-maleimido) = O=C1C=CC(=O)N1CCCCCC(=O)*; Butanoyl(4-maleimido) = O=C1C=CC(=O)N1CCCC(=O)*; Propanoyl(3-maleimido) = O=C1C=CC(=O)N1CCC(=O)*; PEG6 = NCCOCCOCCOCCOCCOCCOCCC(=O)O; X2 = O=C1C=CC(=O)N1CCOCCOCCC(=O)*; PEG4 = NCCOCCOCCOCCOCCC(=O)O; PEG3 = NCCOCCOCCOCCC(=O)O; PEG2 = NCCOCCOCCC(=O)O

Assay: Water solubility of freeze-dried compounds in water (observation and HPLC)

Row | SMILES | solubility
1 | COc1cccc2c1C(=O)c1c(O)c3c(c(O)c1C2=O)C[C@@](O)(C(=O)CO)C[C@@H]3O[C@H]1C[C@H](NC(=O)[C@H](CC(C)C)NC(=O)[C@H](CC(N)=O)NC(=O)[C@H](C)NC(=O)[C@H](C)NC(=O)[C@H](CCC(=O)O)NC(=O)CCOCCOCCNC(=O)CCN2C(=O)C=CC2=O)[C@H](O)[C@H](C)O1 [QHL-039] ({Propanoyl(3-maleimido)-PEG2}-EAANL-{Doxorubicin(3'-N)}) | > 20 mg/mL
2 | COc1cccc2c1C(=O)c1c(O)c3c(c(O)c1C2=O)C[C@@](O)(C(=O)CO)C[C@@H]3O[C@H]1C[C@H](NC(=O)[C@H](CC(C)C)NC(=O)[C@H](CC(N)=O)NC(=O)[C@H](C)NC(=O)[C@H](C)NC(=O)[C@H](CC(=O)O)NC(=O)CCOCCOCCOCCOCCNC(=O)CCN2C(=O)C=CC2=O)[C@H](O)[C@H](C)O1 [QHL-054] ({Propanoyl(3-maleimido)-PEG4}-DAANL-{Doxorubicin(3'-N)}) | > 25 mg/mL
3 | COc1cccc2c1C(=O)c1c(O)c3c(c(O)c1C2=O)C[C@@](O)(C(=O)CO)C[C@@H]3O[C@H]1C[C@H](NC(=O)[C@H](CC(C)C)NC(=O)[C@H](CC(N)=O)NC(=O)[C@H](C)NC(=O)[C@H](C)NC(=O)CCOCCOCCOCCOCCNC(=O)CCCN2C(=O)C=CC2=O)[C@H](O)[C@H](C)O1 [QHL-105] ({Butanoyl(4-maleimido)-PEG4}-AANL-{Doxorubicin(3'-N)}) | > 10 mg/mL
4 | COc1cccc2c1C(=O)c1c(O)c3c(c(O)c1C2=O)C[C@@](O)(C(=O)CO)C[C@@H]3O[C@H]1C[C@H](NC(=O)[C@H](CC(C)C)NC(=O)[C@H](CC(N)=O)NC(=O)[C@H](C)NC(=O)[C@H](C)NC(=O)[C@H](CCC(=O)O)NC(=O)CCOCCOCCOCCNC(=O)CCN2C(=O)C=CC2=O)[C@H](O)[C@H](C)O1 [QHL-045] ({Propanoyl(3-maleimido)-PEG3}-EAANL-{Doxorubicin(3'-N)}) | > 20 mg/mL
5 | COc1cccc2c1C(=O)c1c(O)c3c(c(O)c1C2=O)C[C@@](O)(C(=O)CO)C[C@@H]3O[C@H]1C[C@H](NC(=O)[C@H](CC(C)C)NC(=O)[C@H](CC(N)=O)NC(=O)[C@H](C)NC(=O)[C@H](C)NC(=O)[C@H](CC(=O)O)NC(=O)CCOCCOCCN2C(=O)C=CC2=O)[C@H](O)[C@H](C)O1 [QHL-033] (X2-DAANL-{Doxorubicin(3'-N)}) | > 20 mg/mL
6 | COc1cccc2c1C(=O)c1c(O)c3c(c(O)c1C2=O)C[C@@](O)(C(=O)CO)C[C@@H]3O[C@H]1C[C@H](NC(=O)[C@H](CC(C)C)NC(=O)[C@H](CC(N)=O)NC(=O)[C@H](C)NC(=O)[C@H](C)NC(=O)[C@H](CCC(=O)O)NC(=O)CCOCCOCCOCCOCCOCCOCCNC(=O)CCCN2C(=O)C=CC2=O)[C@H](O)[C@H](C)O1 [QHL-081] ({Butanoyl(4-maleimido)-PEG6}-EAANL-{Doxorubicin(3'-N)}) | > 30 mg/mL
7 | COc1cccc2c1C(=O)c1c(O)c3c(c(O)c1C2=O)C[C@@](O)(C(=O)CO)C[C@@H]3O[C@H]1C[C@H](NC(=O)[C@H](CC(C)C)NC(=O)[C@H](CC(N)=O)NC(=O)[C@H](C)NC(=O)[C@H](C)NC(=O)[C@@H](NC(=O)CCCCCN2C(=O)C=CC2=O)[C@@H](C)O)[C@H](O)[C@H](C)O1 [QHL-130] ({Hexanoyl(6-maleimido)}-TAANL-{Doxorubicin(3'-N)}) | > 2 mg/mL
8 | COc1cccc2c1C(=O)c1c(O)c3c(c(O)c1C2=O)C[C@@](O)(C(=O)CO)C[C@@H]3O[C@H]1C[C@H](NC(=O)[C@H](CC(C)C)NC(=O)[C@H](CC(N)=O)NC(=O)[C@H](C)NC(=O)[C@H](C)NC(=O)CCOCCOCCOCCNC(=O)CCCN2C(=O)C=CC2=O)[C@H](O)[C@H](C)O1 [QHL-102] ({Butanoyl(4-maleimido)-PEG3}-AANL-{Doxorubicin(3'-N)}) | > 10 mg/mL
9 | COc1cccc2c1C(=O)c1c(O)c3c(c(O)c1C2=O)C[C@@](O)(C(=O)CO)C[C@@H]3O[C@H]1C[C@H](NC(=O)[C@H](CC(C)C)NC(=O)[C@H](CC(N)=O)NC(=O)[C@H](C)NC(=O)[C@H](C)NC(=O)CCOCCOCCOCCOCCOCCOCCNC(=O)CCCN2C(=O)C=CC2=O)[C@H](O)[C@H](C)O1 [QHL-108] ({Butanoyl(4-maleimido)-PEG6}-AANL-{Doxorubicin(3'-N)}) | > 20 mg/mL
10 | COc1cccc2c1C(=O)c1c(O)c3c(c(O)c1C2=O)C[C@@](O)(C(=O)CO)C[C@@H]3O[C@H]1C[C@H](NC(=O)[C@H](CC(C)C)NC(=O)[C@H](CC(N)=O)NC(=O)[C@H](C)NC(=O)[C@H](C)NC(=O)[C@H](CCC(N)=O)NC(=O)CCCCCN2C(=O)C=CC2=O)[C@H](O)[C@H](C)O1 [QHL-134] ({Hexanoyl(6-maleimido)}-QAANL-{Doxorubicin(3'-N)}) | > 5 mg/mL
11 | COc1cccc2c1C(=O)c1c(O)c3c(c(O)c1C2=O)C[C@@](O)(C(=O)CO)C[C@@H]3O[C@H]1C[C@H](NC(=O)[C@H](CC(C)C)NC(=O)[C@H](CC(N)=O)NC(=O)[C@H](C)NC(=O)[C@H](C)NC(=O)[C@H](CCC(=O)O)NC(=O)CCOCCOCCOCCOCCOCCOCCN2C(=O)C=CC2=O)[C@H](O)[C@H](C)O1 [QHL-024] ({Mal(CH2CH2O)6CH2CH2CO}-EAANL-{Doxorubicin(3'-N)}) | > 30 mg/mL
12 | COc1cccc2c1C(=O)c1c(O)c3c(c(O)c1C2=O)C[C@@](O)(C(=O)CO)C[C@@H]3O[C@H]1C[C@H](NC(=O)[C@H](CC(C)C)NC(=O)[C@H](CC(N)=O)NC(=O)[C@H](C)NC(=O)[C@H](C)NC(=O)[C@H](CCC(=O)O)NC(=O)CCOCCOCCOCCOCCNC(=O)CCN2C(=O)C=CC2=O)[C@H](O)[C@H](C)O1 [QHL-051] ({Propanoyl(3-maleimido)-PEG4}-EAANL-{Doxorubicin(3'-N)}) | > 25 mg/mL
13 | COc1cccc2c1C(=O)c1c(O)c3c(c(O)c1C2=O)C[C@@](O)(C(=O)CO)C[C@@H]3O[C@H]1C[C@H](NC(=O)[C@H](CC(C)C)NC(=O)[C@H](CC(N)=O)NC(=O)[C@H](C)NC(=O)[C@H](C)NC(=O)[C@H](CC(=O)O)NC(=O)CCOCCOCCNC(=O)CCN2C(=O)C=CC2=O)[C@H](O)[C@H](C)O1 [QHL-042] ({Propanoyl(3-maleimido)-PEG2}-DAANL-{Doxorubicin(3'-N)}) | > 20 mg/mL
14 | COc1cccc2c1C(=O)c1c(O)c3c(c(O)c1C2=O)C[C@@](O)(C(=O)CO)C[C@@H]3O[C@H]1C[C@H](NC(=O)[C@H](CC(C)C)NC(=O)[C@H](CC(N)=O)NC(=O)[C@H](C)NC(=O)[C@H](C)NC(=O)[C@H](CS)NC(=O)CCCCCN2C(=O)C=CC2=O)[C@H](O)[C@H](C)O1 [QHL-131] ({Hexanoyl(6-maleimido)}-CAANL-{Doxorubicin(3'-N)}) | > 10 mg/mL
15 | COc1cccc2c1C(=O)c1c(O)c3c(c(O)c1C2=O)C[C@@](O)(C(=O)CO)C[C@@H]3O[C@H]1C[C@H](NC(=O)[C@H](CC(C)C)NC(=O)[C@H](CC(N)=O)NC(=O)[C@H](C)NC(=O)[C@H](C)NC(=O)[C@H](Cc2c[nH]cn2)NC(=O)CCCCCN2C(=O)C=CC2=O)[C@H](O)[C@H](C)O1 [QHL-137] ({Hexanoyl(6-maleimido)}-HAANL-{Doxorubicin(3'-N)}) | > 5 mg/mL
16 | COc1cccc2c1C(=O)c1c(O)c3c(c(O)c1C2=O)C[C@@](O)(C(=O)CO)C[C@@H]3O[C@H]1C[C@H](NC(=O)[C@H](CC(C)C)NC(=O)[C@H](CC(N)=O)NC(=O)[C@H](C)NC(=O)[C@H](C)NC(=O)CNC(=O)CCCCCN2C(=O)C=CC2=O)[C@H](O)[C@H](C)O1 [QHL-121] ({Hexanoyl(6-maleimido)}-GAANL-{Doxorubicin(3'-N)}) | > 10 mg/mL
17 | COc1cccc2c1C(=O)c1c(O)c3c(c(O)c1C2=O)C[C@@](O)(C(=O)CO)C[C@@H]3O[C@H]1C[C@H](NC(=O)[C@H](CC(C)C)NC(=O)[C@H](CC(N)=O)NC(=O)[C@H](C)NC(=O)[C@H](C)NC(=O)[C@H](CC(C)C)NC(=O)CCCCCN2C(=O)C=CC2=O)[C@H](O)[C@H](C)O1 [QHL-124] ({Hexanoyl(6-maleimido)}-LAANL-{Doxorubicin(3'-N)}) | > 5 mg/mL
18 | COc1cccc2c1C(=O)c1c(O)c3c(c(O)c1C2=O)C[C@@](O)(C(=O)CO)C[C@@H]3O[C@H]1C[C@H](NC(=O)[C@H](CC(C)C)NC(=O)[C@H](CC(N)=O)NC(=O)[C@H](C)NC(=O)[C@H](C)NC(=O)[C@H](CCC(=O)O)NC(=O)CCOCCOCCOCCNC(=O)CCCN2C(=O)C=CC2=O)[C@H](O)[C@H](C)O1 [QHL-069] ({Butanoyl(4-maleimido)-PEG3}-EAANL-{Doxorubicin(3'-N)}) | > 25 mg/mL
19 | COc1cccc2c1C(=O)c1c(O)c3c(c(O)c1C2=O)C[C@@](O)(C(=O)CO)C[C@@H]3O[C@H]1C[C@H](NC(=O)[C@H](CC(C)C)NC(=O)[C@H](CC(N)=O)NC(=O)[C@H](C)NC(=O)[C@H](C)NC(=O)[C@H](CC(=O)O)NC(=O)CCOCCOCCNC(=O)CCCN2C(=O)C=CC2=O)[C@H](O)[C@H](C)O1 [QHL-066] ({Butanoyl(4-maleimido)-PEG2}-DAANL-{Doxorubicin(3'-N)}) | > 15 mg/mL
20 | COc1cccc2c1C(=O)c1c(O)c3c(c(O)c1C2=O)C[C@@](O)(C(=O)CO)C[C@@H]3O[C@H]1C[C@H](NC(=O)[C@H](CC(C)C)NC(=O)[C@H](CC(N)=O)NC(=O)[C@H](C)NC(=O)[C@H](C)NC(=O)[C@H](CCC(=O)O)NC(=O)CCOCCOCCNC(=O)CCCN2C(=O)C=CC2=O)[C@H](O)[C@H](C)O1 [QHL-063] ({Butanoyl(4-maleimido)-PEG2}-EAANL-{Doxorubicin(3'-N)}) | > 15 mg/mL
21 | COc1cccc2c1C(=O)c1c(O)c3c(c(O)c1C2=O)C[C@@](O)(C(=O)CO)C[C@@H]3O[C@H]1C[C@H](NC(=O)[C@H](CC(C)C)NC(=O)[C@H](CC(N)=O)NC(=O)[C@H](C)NC(=O)[C@H](C)NC(=O)[C@H](CC(=O)O)NC(=O)CCN2C(=O)C=CC2=O)[C@H](O)[C@H](C)O1 [QHL-114] ({Propanoyl(3-maleimido)}-DAANL-{Doxorubicin(3'-N)}) | > 15 mg/mL
22 | COc1cccc2c1C(=O)c1c(O)c3c(c(O)c1C2=O)C[C@@](O)(C(=O)CO)C[C@@H]3O[C@H]1C[C@H](NC(=O)[C@H](CC(C)C)NC(=O)[C@H](CC(N)=O)NC(=O)[C@H](C)NC(=O)[C@H](C)NC(=O)[C@H](C)NC(=O)CCCCCN2C(=O)C=CC2=O)[C@H](O)[C@H](C)O1 [QHL-122] ({Hexanoyl(6-maleimido)}-AAANL-{Doxorubicin(3'-N)}) | > 10 mg/mL
23 | COc1cccc2c1C(=O)c1c(O)c3c(c(O)c1C2=O)C[C@@](O)(C(=O)CO)C[C@@H]3O[C@H]1C[C@H](NC(=O)[C@H](CC(C)C)NC(=O)[C@H](CC(N)=O)NC(=O)[C@H](C)NC(=O)[C@H](C)NC(=O)[C@H](CCSC)NC(=O)CCCCCN2C(=O)C=CC2=O)[C@H](O)[C@H](C)O1 [QHL-126] ({Hexanoyl(6-maleimido)}-MAANL-{Doxorubicin(3'-N)}) | > 2 mg/mL
